T1: Fc Receptor-like 5 (FcRL5), full length, overexpressed on 3T3 or Raji cells (human, UniProt Q96RD9 16-977)
T1 construct: also called 3T3-FcRL5
T1 sequence: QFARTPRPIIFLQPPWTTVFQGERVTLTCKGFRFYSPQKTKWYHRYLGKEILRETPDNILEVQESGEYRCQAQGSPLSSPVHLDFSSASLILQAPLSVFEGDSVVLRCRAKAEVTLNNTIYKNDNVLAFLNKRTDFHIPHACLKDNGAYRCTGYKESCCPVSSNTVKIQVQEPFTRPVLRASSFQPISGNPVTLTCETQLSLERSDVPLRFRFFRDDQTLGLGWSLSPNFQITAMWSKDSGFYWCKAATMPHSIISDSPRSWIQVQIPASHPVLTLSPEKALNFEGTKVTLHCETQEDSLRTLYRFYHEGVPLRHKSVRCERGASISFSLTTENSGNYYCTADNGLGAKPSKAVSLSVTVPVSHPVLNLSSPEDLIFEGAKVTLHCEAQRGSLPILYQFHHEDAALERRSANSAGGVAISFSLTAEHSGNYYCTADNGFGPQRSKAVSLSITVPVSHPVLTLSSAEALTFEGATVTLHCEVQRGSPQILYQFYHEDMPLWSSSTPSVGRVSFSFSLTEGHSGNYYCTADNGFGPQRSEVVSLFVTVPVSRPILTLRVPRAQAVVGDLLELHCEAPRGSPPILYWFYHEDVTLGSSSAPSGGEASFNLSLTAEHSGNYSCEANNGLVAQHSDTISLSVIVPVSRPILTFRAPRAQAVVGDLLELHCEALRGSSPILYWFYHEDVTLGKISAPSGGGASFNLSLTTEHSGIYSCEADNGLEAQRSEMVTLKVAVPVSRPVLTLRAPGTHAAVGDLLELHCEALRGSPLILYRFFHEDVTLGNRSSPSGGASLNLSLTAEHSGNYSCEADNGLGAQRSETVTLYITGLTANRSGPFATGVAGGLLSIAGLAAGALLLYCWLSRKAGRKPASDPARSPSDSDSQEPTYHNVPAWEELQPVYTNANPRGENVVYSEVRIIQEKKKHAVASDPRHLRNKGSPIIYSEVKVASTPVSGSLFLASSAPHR

T2: FcRL1, overexpressed on 3T3 cells (UniProt Q96LA6 17-429, limits assumed)
T2 construct: whole, on cells
T2 sequence (looked up): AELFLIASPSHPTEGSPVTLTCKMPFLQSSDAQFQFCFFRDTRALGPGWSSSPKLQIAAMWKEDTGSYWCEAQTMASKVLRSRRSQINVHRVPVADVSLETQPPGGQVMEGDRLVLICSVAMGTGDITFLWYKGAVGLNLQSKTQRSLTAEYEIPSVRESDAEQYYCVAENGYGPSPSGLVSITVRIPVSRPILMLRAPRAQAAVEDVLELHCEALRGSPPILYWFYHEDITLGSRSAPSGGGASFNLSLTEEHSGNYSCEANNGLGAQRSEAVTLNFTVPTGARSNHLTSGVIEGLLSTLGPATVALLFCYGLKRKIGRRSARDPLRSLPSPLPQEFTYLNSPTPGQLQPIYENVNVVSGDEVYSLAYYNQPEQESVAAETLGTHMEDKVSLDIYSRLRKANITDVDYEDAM

T3: FcRL2, overexpressed on 3T3 cells (UniProt Q96LA5 20-508, limits assumed)
T3 construct: whole, on cells
T3 sequence (looked up): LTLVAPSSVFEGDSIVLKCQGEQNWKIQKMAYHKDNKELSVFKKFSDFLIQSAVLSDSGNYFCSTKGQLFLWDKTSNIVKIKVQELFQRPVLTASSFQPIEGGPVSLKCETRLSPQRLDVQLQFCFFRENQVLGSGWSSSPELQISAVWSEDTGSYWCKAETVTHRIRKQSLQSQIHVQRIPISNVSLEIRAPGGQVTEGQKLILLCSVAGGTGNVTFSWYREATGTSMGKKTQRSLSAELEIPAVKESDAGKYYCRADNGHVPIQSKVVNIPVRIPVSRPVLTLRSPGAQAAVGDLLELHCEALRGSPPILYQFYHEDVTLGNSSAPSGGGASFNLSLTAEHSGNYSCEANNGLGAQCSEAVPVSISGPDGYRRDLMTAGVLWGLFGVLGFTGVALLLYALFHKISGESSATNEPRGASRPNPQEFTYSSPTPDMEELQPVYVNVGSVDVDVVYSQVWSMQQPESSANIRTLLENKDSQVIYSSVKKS

T4: FcRL4, overexpressed on 3T3 cells (UniProt Q96PJ5 20-515, limits assumed)
T4 construct: whole, on cells
T4 sequence (looked up): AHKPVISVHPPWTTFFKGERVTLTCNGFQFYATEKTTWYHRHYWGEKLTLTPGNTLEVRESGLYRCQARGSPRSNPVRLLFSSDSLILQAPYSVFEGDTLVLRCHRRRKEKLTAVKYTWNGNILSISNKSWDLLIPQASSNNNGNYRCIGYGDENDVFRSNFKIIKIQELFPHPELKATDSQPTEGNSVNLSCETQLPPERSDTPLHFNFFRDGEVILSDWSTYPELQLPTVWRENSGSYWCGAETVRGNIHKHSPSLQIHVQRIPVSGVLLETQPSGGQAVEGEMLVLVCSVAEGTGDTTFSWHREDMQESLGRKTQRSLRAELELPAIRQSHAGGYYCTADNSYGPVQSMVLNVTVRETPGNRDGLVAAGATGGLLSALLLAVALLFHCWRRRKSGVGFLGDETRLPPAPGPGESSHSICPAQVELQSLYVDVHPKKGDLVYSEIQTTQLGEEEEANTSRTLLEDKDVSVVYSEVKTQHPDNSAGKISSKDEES


Legend:
[1] = biological target: T1, Fc Receptor-like 5 (FcRL5), full …; assay: phage clone screening on cells
Outline: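 Cell-surface binding was read by flow cytometry using anti-M13 coat protein mAb and PE-labelled anti-mouse Ig. Selected scFv phage were screened on FcRL5-overexpressing 3T3 cells, with 3T3 lines bearing FcRL1, 2, 3, 4 or 6 as negative controls.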

[2] = biological target: T2, FcRL1, overexpressed on 3T3 cells; assay: phage clone on 3T3-FcRL1 cells
[3] = biological target: T3, FcRL2, overexpressed on 3T3 cells; assay: phage clone on 3T3-FcRL2 cells
[4] = biological target: T4, FcRL4, overexpressed on 3T3 cells; assay: phage clone on 3T3-FcRL4 cells
SLAMF9 protein = SLAMF9 protein (UniProt Q96A28 19-236, limits assumed); assay: phage clone on SLAMF9 protein
SLAMF9 protein, sequence (Q96A28 19-236 limits assumed): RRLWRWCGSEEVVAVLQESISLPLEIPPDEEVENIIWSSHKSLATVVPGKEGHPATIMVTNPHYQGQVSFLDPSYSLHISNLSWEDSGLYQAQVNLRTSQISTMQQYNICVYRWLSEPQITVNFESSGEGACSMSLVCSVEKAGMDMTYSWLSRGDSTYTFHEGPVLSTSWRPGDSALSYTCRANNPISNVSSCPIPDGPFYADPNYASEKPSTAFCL

Binder	binding result [1]	binding result [2]	binding result [3]	binding result [4]	binding result (SLAMF9 protein)
ET200-045 (scFv, screened as phage clone; entry is VL-linker-VH-His tag-HA tag) scFv: QPVLTQPPSVSVAPGKTATITCGGNNIGSESVHWYHQKPGQAPVLVIYDDAGRPSGIPERFTGSNSGNTATLTISRVEAGDEADYYCQVWDRNSAQFVFGPGTKVTVLGSRGGGGSGGGGSGGGGSLEMAEVQLVQSGAEVKKPGASVKVSCKASGYTFTSYGISWVRQAPGQGLEWMGWISAYNGNTNYAQKLQGRVTMTTDTSTSTAYMELRSLRSDDTAVYYCARGVHLDWWGQGTLVTVSSTSGQAGQHHHHHHGAYPYDVPDYAS	binds	no binding	no binding	no binding	no binding
ET200-040 (scFv, screened as phage clone; entry is VL-linker-VH-His tag-HA tag) scFv: QSVLTQPPSVSGAPGQRVTISCTGSSSNIGAGYDVHWYQQLPGTAPKLLIYGNSNRPSGVPDRFSGSKSGTSASLAITGLQAEDEADYYCQSYDSSLSGYVFGTGTKVTVLGSRGGGGSGGGGSGGGGSLEMAQVQLVQSGAEVKKPGASVKVSCKVSGYTLTELSMHWVRQAPGKGLEWMGGFDPEDGETIYAQKFQGRVTMTEDTSTDTAYMELSSLRSEDTAVYYCARYSGVYYDWGQGTLVTVSSTSGQAGQHHHHHHGAYPYDVPDYAS	binds	no binding	no binding	no binding	no binding
ET200-003 (scFv, screened as phage clone; entry is VL-linker-VH-His tag-HA tag) scFv: QSVLTQPPSVSVSPGQTASISCSGNKLGTKYVYWYQKRPGQSPVLVMYEDNQRPSGIPERFSGSNSGNTATLTIRGTQTVDEADYYCQAWDSDTFVVFGGGTKVTVLGSRGGGGSGGGGSGGGGSLEMAEVQLVETGGGVVQPGRSLRLSCAASGFTFSSYGMHWVRQAPGKGLEWVAVISHDGSNKYYADSVKGRFTISRDNSKDTLYLQMNSLRGEDTAVYYCARSNQWSGYFSFDYWGQGTLVTVSSTSGQAGQHHHHHHGAYPYDVPDYAS	binds	no binding	no binding	no binding	no binding
ET200-038 (scFv, screened as phage clone; entry is VL-linker-VH-His tag-HA tag) scFv: QSVLTQPPSVSGAPGQRVTISCTGSSSNIGAGFDVHWYQLLPGTAPKLLIYANSNRPSGVPDRFSGSKSGTSASLAITGLLAEDEADYYCQSYDSSLSGVVFGGGTKLTVLGSRGGGGSGGGGSGGGGSLEMAQVQLVQSGAEVKKPGSSVKVSCKASGGTFSSYAISWVRQAPGQGLEWMGGIIPIFGTANYAQKFQGRVTITADESTSTAYMELSSLRSEDTAVYYCARGASFDRHDNWGQGTLVTVSSTSGQAGQHHHHHHGAYPYDVPDYAS	binds	no binding	no binding	no binding	no binding
ET200-069 (scFv, screened as phage clone; entry is VL-linker-VH-His tag-HA tag; also called ET200-69) scFv: QSVVTQPPSASGTPGQRVTISCSGSSSNIGSNYVYWYQQLPGTAPKLLIYSNNQRPSGVPDRFSGSKSGTSASLAISGLRSEDEADYYCAAWDDSLSGYVFGTGTKLTVLGSRGGGGSGGGGSGGGGSLEMAQVQLQQWGAGLLKPSETLSLTCAVYGGSFSGYYWSWIRQPPGKGLEWIGEINHSGSTNYNPSLKSRVTISVDTSKNQFSLKLSSVTAADTAVYYCARLYEGGYHGWGSWLSSDSWGQGTLVTVSSTSGQAGQHHHHHHGAYPYDVPDYAS	binds	no binding	no binding	no binding	no binding
ET200-044 (scFv, screened as phage clone; entry is VL-linker-VH-His tag-HA tag) scFv: QSVLTQPPSVSVSPGQTATIACSGHKLGDKYASWYQQKSGQSPVLIIYQDNKRPSGIPERFSGSNSGNTATLTISGTQALDEADYYCQAWDSSTYVAFGGGTKLTVLGSRGGGGSGGGGSGGGGSLEMAQVQLQESGPGLVKPSETLSLTCVVSGGSISSSNWWSWVRQPPGKGLEWIGEIYHSGSPNYNPSLKSRVTISVDKSKNQFSLKLSSVTAADTAVYYCARMTTHTFGYDAWGQGTLVTVSSTSGQAGQHHHHHHGAYPYDVPDYAS	binds	no binding	no binding	no binding	no binding
ET200-042 (scFv, screened as phage clone; entry is VL-linker-VH-His tag-HA tag) scFv: QSVVTQPPSVSGAPGQTVTISCTGGSSNIGTGYFVNWYQQVPGKAPKLLILGNNNRPSGVPDRLSGSTSGTSASLAITGLQAEDEGTYYCQSYDSSLSGYVFGTGTKVTVLGSRGGGGSGGGGSGGGGSLEMAQVQLQQSGPGLVKPSQTLSLTCGISGDSVSTNSVAWHWIRQSPSRGLEWLGRTYYRSKWSNDYGVSVKSRITIIPDTSKNQFSLQLNSVTPEDTAVYYCARSSSWYQIFDYWGQGTLVTVSSTSGQAGQHHHHHHGAYPYDVPDYAS	binds	no binding	no binding	no binding	no binding
ET200-041 (scFv, screened as phage clone; entry is VL-linker-VH-His tag-HA tag) scFv: NFMLTQPHSVSGSPGKTVTISCTGSSGSIADNFVQWYQQRPGGVPTTVIFNDDERPSGVPDRFSGSIDTSSNSASLTISGLKTEDEADYYCQSYDNNNRGVFGGGTKLTVLGSRGGGGSGGGGSGGGGSLEMAQVQLVQSGAEVKKPGSSVKVSCKASGGTFSSYAISWVRQAPGQGLEWMGWMNPNSGNTGYAQKFQGRVTMTRNTSISTAYMELSNLRSEDTAVYYCARYYSYGYDWGQGTLVTVSSTSGQAGQHHHHHHGAYPYDVPDYAS	binds	no binding	no binding	no binding	no binding
